For 2 molecules, activity on viral hemagglutination (HI) results are on record in US20140322196A1.

Holding throughout (assay): cell-based or functional assay
Assay [1] has as its target Hemagglutinin (HA) of Influenza A virus A/Parma/24/09 (Brisbane-like) (oseltamivir-resistant) H1N1 (Influenza A virus A/Parma/24/09 H1N1).
For assay [2], the target named is Hemagglutinin (HA) of Influenza A virus A/Solomon 3/2006 H1N1 (inactivated subunits, vaccine) (Influenza A virus A/Solomon 3/2006 H1N1).
In assay [3] the target is Hemagglutinin (HA) of Influenza A virus A/Wisconsin/67/2005 H3N2 (inactivated subunits, vaccine) (Influenza A virus A/Wisconsin/67/2005 H3N2).

B1: bLf C-lobe (aa 285-689) (protein)
chain: SFQLFGSPPGQRDLLFKDSALGFLRIPSKVDSALYLGSRYLTTLKNLRETAEEVKARYTRVVWCAVGPEEQKKCQQWSQQSGQNVTCATASTTDDCIVLVLKGEADALNLDGGYIYTAGKCGLVPVLAENRKSSKHSSLDCVLRPTEGYLAVAVVKKANEGLTWNSLKDKKSCHTAVDRTAGWNIPMGLIVNQTGSCAFDEFFSQSCAPGADPKSRLCALCAGDDQGLDKCVPNSKEKYYGYTGAFRCLAEDVGDVAFVKNDTVWENTNGESTADWAKNLNREDFRLLCLDGTRKPVTEAQSCHLAVAPNHAVVSRSDRAAHVKQVLLHQQALFGKNGKNCPDKFCLFKSETKNLLFNDNTECLAKLGGRPTYEEYLGTEYVTAIANLKKCSTSPLLEACAFLTR
Turning to B1, the activity on viral hemagglutination (HI) in assay [1] was 24 nM; in assay [2], 5 pM; in assay [3] it was 1.6 pM.

B2: bLf C-lobe (aa 345-689) (protein)
chain: VVWCAVGPEEQKKCQQWSQQSGQNVTCATASTTDDCIVLVLKGEADALNLDGGYIYTAGKCGLVPVLAENRKSSKHSSLDCVLRPTEGYLAVAVVKKANEGLTWNSLKDKKSCHTAVDRTAGWNIPMGLIVNQTGSCAFDEFFSQSCAPGADPKSRLCALCAGDDQGLDKCVPNSKEKYYGYTGAFRCLAEDVGDVAFVKNDTVWENTNGESTADWAKNLNREDFRLLCLDGTRKPVTEAQSCHLAVAPNHAVVSRSDRAAHVKQVLLHQQALFGKNGKNCPDKFCLFKSETKNLLFNDNTECLAKLGGRPTYEEYLGTEYVTAIANLKKCSTSPLLEACAFLTR
Consider B2, for which the values for the activity on viral hemagglutination (HI) in assay [1], in assay [2] and in assay [3] were 10 nM, 5 pM and 1.2 pM, respectively.
